From paper PMC3544974 (Structure (London, England : 1993), 2012)

B1: HBeAg construct Cp(-10)149, C48A, C107A (natural protein)
chain: SKLCLGWLWGMDIDPYKEFGATVELLSFLPSDFFPSVRDLLDTAAALYRDALESPEHASPHHTALRQAILCWGDLMTLATWVGTNLEDPASRDLVVSYVNTNVGLKFRQLLWFHISALTFGRETVLEYLVSFGVWIRTPPAYRPPNAPILSTLPETTVV

Assays:
[1] = target: HBeAg used for crystallization: Cp(-10)149, C48A, C107A, G123A (Hepatitis B virus) (UniProt P03147); test: crystal structure
[2] = target: the molecule itself; test: AUC

Molecule | stoichiometry N [1] | stoichiometry N [2]
HBeAg used for crystallization: Cp(-10)149, C48A, C107A, G123A (from UniProt P03147 1-149) (natural protein) | 2 | –
B1 | – | 2
